US20040115667A1, “Dna-sequences, which code for an apoptosis signal transduction protein” (priority 2000, published 2004)
Entries after “also recorded” stand apart in the source; their conditions may differ. Peptide text beside a SMILES is read from it. * marks the point of attachment. Cbz = O=C(OCc1ccccc1)*; CH2F = FC*

Assays:
[1] = test system: Bcl-rambo-induced cell death (caspase-3 activity) in 293T cells; test: Effect of apoptosis inhibitors on apoptotic activity of full-length Bcl-rambo in 293T cells; format: cell-based, human
Description: The effect of different apoptosis inhibitors on the apoptotic activity of Bcl-rambo is investigated in FIG. 6. For this, 293T cells were transfected for 27 hours (shown in FIG. 6A) with 2 μg of Bcl-rambo expression plasmid and 0.5 μg of expression vectors encoding various apoptosis inhibitors, together with 0.5 μg of β-galactosidase expression vector.
(§1) 293T cells (3×10^5 cells) were sown on 60 mm culture dishes on the day before the transfection and then transiently cotransfected with 2 μg of Bcl-rambo expression plasmids and 0.2 μg of EGFP expression vector (pEGFP-C1, from Clontech) or with 0.5 μg of pCMV-β-galactosidase expression vector. The postnuclear lyzates were then analyzed with regard to the fluorescence intensity of EGFP, the galactosidase activity and the caspase-3 activity using a peptide substrate (Ac-DEVD-AMC, from Alexis). In order to be able to compare the individual measurements, the caspase-3 activity (measured as the number of times it was increased by the induction) was standardized using the fluorescence intensity of EGFP or the β-galactosidase activity.

[2] = test system: caspase-3 activity in 293T cells; test: Caspase-3 activity / apoptosis in 293T cells transfected with Bcl-rambo constructs; format: cell-based, human; settings: 2 μg construct, 42 hours; for increase in caspase-3 activity (times increase in activity induced): standardized by EGFP fluorescence
Description: FIG. 5 describes the Bcl-rambo-induced apoptosis which is induced by the C-terminal domain of Bcl-rambo. For this, 293T cells were transfected with 2 μg of various Bcl-rambo constructs, namely mock transfectants, full-length Bcl-rambo (amino acids 1-485), Bcl-rambo without the C-terminal anchor domain (amino acids 1-459), the N-terminal domain of homology with Bcl-2 (amino acids 1-223), the C-terminal domain containing the BHNo region (amino acids 205-485), the C-terminal domain without the anchor region (amino acids 205-459) and, finally, a truncated N-terminal domain (amino acids 1-201). All the abovementioned constructs are depicted diagrammatically in FIG. 5 (right-hand drawing), with the BH regions (BH4 (4), BH3 (3), BH1 (1) and BH2 (2)) and also, if present, the tandem repeats and/or the anchor regions (MA) being shown diagrammatically. The transfection, which took place jointly together with 0.2 μg of an EGFP expression vector, namely pEGFP-C1, lasted for 42 hours. The graph shown in the upper left of FIG. 5 plots the caspase-3 activity (as the times increase in activity induced). The activity in the individual experimental assays was standardized by taking into account the fluorescence intensity of transfected EGFP, i.e. the cotransfection with the EGFP expression vector was used to check the transfection rate in order to ensure that it was possible to compare the results in the different experimental assays.
It follows from the results of the experiments depicted in FIG. 5 that the BHNo domain (and not, for example, the domain having homology with Bcl-2) is responsible for inducing cell death when Bcl-rambo is overexpressed. […] In the case of all the cell extracts, the strength of the expression of the individual constructs in the transfected cells was checked by Western blot analysis using anti-Flag antibody M2 (lower left-hand diagram in FIG. 5).
as §1

[3] = test system: antiapoptotic proteins (Bcl-2, Bcl-XL, Bcl-w, A1, MCL-1, E1B-19K and BHRF1); test: Co-immunoprecipitation of Bcl-rambo with antiapoptotic proteins of the Bcl-2 family in 293T cells; format: binding; settings: HA-labeled Bcl-rambo with Flag-labeled antiapoptotic protein
[4] = test system: proapoptotic proteins Bax, Bak, Bik, Bid, Bim, Bad and Bcl-rambo; test: Co-immunoprecipitation of Bcl-rambo with proapoptotic proteins of the Bcl-2 family in 293T cells; format: binding; settings: anti-Flag M2 agarose immunoprecipitation, anti-EE blot, also with z-VAD-fmk
[5] = molecular target: T1, proapoptotic proteins Bax, Bak, Bik, Bid, Bim, Bad and Bcl-rambo (Homo sapiens, UniProt Q9BXK5); test: as above; format: binding; settings: co-immunoprecipitation
T1 construct: expressed in transfected cells; host or cells: 293T cells

COC(=O)C[C@H](NC(=O)[C@H](C)NC(=O)[C@@H](NC(=O)OCc1ccccc1)C(C)C)C(=O)CF [z-VAD-fmk, reference compound] (Cbz-Val-Ala-Asp(OMe)-CH2F) was tested, and the “suppression of Bcl-rambo-induced cell death by pancaspase inhibitor” value ([1]; not depicted in FIG. 6) was “completely suppressed”.

For “c-IAP2: apoptosis inhibitor of the IAP family, coexpressed”, the “blocking of Bcl-rambo-induced cell death by coexpressed apoptosis inhibitor” value ([1]; 293T cells, 27 hours, 2 μg Bcl-rambo plasmid, 0.5 μg inhibitor vector, standardized by β-galactosidase) was “act as inhibitors; also recorded: inhibitory effect”.

B1: 1-203: truncated N-terminal domain of Bcl-rambo; printed 1-203, elsewhere 1-201 (protein, UniProt Q9BXK5 1-201, looked up, fragment)
chain: MASSSTVPLGFHYETKYVVLSYLGLLSQEKLQEQHLSSPQGVQLDIASQSLDQEILLKVKTEIEEELKSLDKEISEAFTSTGFDRHTSPVFSPANPESSMEDCLAHLGEKVSQELKEPLHKALQMLLSQPVTYQAFRECTLETTVHASGWNKILVPLVLLRQMLLELTRRGQEPLSALLQFGVTYLEDYSAEYIIQQGGWG
For B1, the “effect on cell survival / induction of cell death on overexpression” value (shortened to “effect on cell survival / induction”) [2] was “no effect on cell survival rate”.

B2: amino acids 1-223: N-terminal domain of Bcl-rambo with homology to Bcl-2 (protein, UniProt Q9BXK5 1-223, looked up, fragment)
chain: MASSSTVPLGFHYETKYVVLSYLGLLSQEKLQEQHLSSPQGVQLDIASQSLDQEILLKVKTEIEEELKSLDKEISEAFTSTGFDRHTSPVFSPANPESSMEDCLAHLGEKVSQELKEPLHKALQMLLSQPVTYQAFRECTLETTVHASGWNKILVPLVLLRQMLLELTRRGQEPLSALLQFGVTYLEDYSAEYIIQQGGWGTVFSLESEEEEYPGITAEDSND
For B2, the “interaction with antiapoptotic Bcl-2 family proteins” value [3] was “does not interact with other proteins of the Bcl-2 family”, the “protein/protein interaction with proapoptotic Bcl-2 family proteins” value [4] was “does not interact with other proteins of the Bcl-2 family” and the “effect on cell survival / induction” value [2] was “no effect on cell survival rate”.

B3: C-terminal BHNo domain (amino acids 205-459): C-terminal domain with BHNo region and membrane anchor; range printed as 205-459, probably 205-485 (protein, UniProt Q9BXK5 205-485, looked up, fragment)
chain: SLESEEEEYPGITAEDSNDIYILPSDNSGQVSPPESPTVTTSWQSESLPVSLSASQSWHTESLPVSLGPESWQQIAMDPEEVKSLDSNGAGEKSENNSSNSDIVHVEKEEVPEGMEEAAVASVVLPARELQEALPEAPAPLLPHITATSLLGTREPDTEVITVEKSSPATSLFVELDEEEVKAATTEPTEVEEVVPALEPTETLLSEKEINAREESLVEELSPASEKKPVPPSEGKSRLSPAGEMKPMPLSEGKSILLFGGAAAVAILAVAIGVALALRKK
With B3 the “increase in caspase-3 activity (times increase in activity induced)” value [2] was “approx. 80 fold”.

B4: full-length Bcl-rambo: full-length human Bcl-rambo protein, amino acids 1-485, expressed from plasmid (protein, UniProt Q9BXK5 1-485, looked up)
chain: MASSSTVPLGFHYETKYVVLSYLGLLSQEKLQEQHLSSPQGVQLDIASQSLDQEILLKVKTEIEEELKSLDKEISEAFTSTGFDRHTSPVFSPANPESSMEDCLAHLGEKVSQELKEPLHKALQMLLSQPVTYQAFRECTLETTVHASGWNKILVPLVLLRQMLLELTRRGQEPLSALLQFGVTYLEDYSAEYIIQQGGWGTVFSLESEEEEYPGITAEDSNDIYILPSDNSGQVSPPESPTVTTSWQSESLPVSLSASQSWHTESLPVSLGPESWQQIAMDPEEVKSLDSNGAGEKSENNSSNSDIVHVEKEEVPEGMEEAAVASVVLPARELQEALPEAPAPLLPHITATSLLGTREPDTEVITVEKSSPATSLFVELDEEEVKAATTEPTEVEEVVPALEPTETLLSEKEINAREESLVEELSPASEKKPVPPSEGKSRLSPAGEMKPMPLSEGKSILLFGGAAAVAILAVAIGVALALRKK
modifications: full-length
notes: full-length human Bcl-rambo protein, amino acids 1-485, expressed from plasmid
With B4 the “interaction with antiapoptotic Bcl-2 family proteins” value [3] was “not possible to detect any interactions; also recorded: no interactions were observed”, the homodimer formation [5] was “Nor can any homodimers be detected” and the “protein/protein interaction with proapoptotic Bcl-2 family proteins” value [4] was “not possible to detect any protein/protein interaction”. The “effect on cell survival / induction” value [2] was “marked proapoptotic effect” and the “increase in caspase-3 activity (times increase in activity induced)” value [2] was “approx. 70 fold”.

B5: 205-459 construct: C-terminal domain of Bcl-rambo without the anchor region (amino acids 205-459) (protein, UniProt Q9BXK5 205-459, looked up, fragment)
chain: SLESEEEEYPGITAEDSNDIYILPSDNSGQVSPPESPTVTTSWQSESLPVSLSASQSWHTESLPVSLGPESWQQIAMDPEEVKSLDSNGAGEKSENNSSNSDIVHVEKEEVPEGMEEAAVASVVLPARELQEALPEAPAPLLPHITATSLLGTREPDTEVITVEKSSPATSLFVELDEEEVKAATTEPTEVEEVVPALEPTETLLSEKEINAREESLVEELSPASEKKPVPPSEGKSRLSPAGEMKPMPLSEGKS
B5 was tested, and the “effect on cell survival / induction” value [2] was “no longer able to elicit cell death”.
